The results in this text go back to publication PMC11667159 (The Journal of Biological Chemistry, 2024).

What is called Kd is the constant that tells how readily two partners part at equilibrium.

The target in test [1] is T1, VC1 domain of human RAGE (receptor for advanced glycation end products), biotinylated (human, UniProt Q15109 23-226, biotin (EZ-Link Sulfo-NHS-Biotin)).
T1 construct: RAGE, human, V and C1 immunoglobulin-like domains; also called RAGE-VC1; VC1 RAGE; source: E. coli Rosetta-gami B (DE3), purified
Kind of test: BLI; biotinylated RAGE-VC1 (25 μg/ml) loaded on streptavidin biosensor; S100B tetramer 50-750 nM in solution (controls: Nbs alone); 25 °C; PBS, 0.1% BSA, 0.05% Tween-20, 1.1 mM CaCl2; global 1:1 fit. Particulars: both partners purified. For orientation: In BLI a coated tip is dipped into the sample, and binding shifts an interference pattern.

The target of test [2] is anti-S100B nanobody Nb12 (llama). In words: BLI; Nbs (20 μg/ml) loaded on Ni-NTA biosensor; S100B dimer or tetramer 25-250 nM in solution; 25 °C; 50 mM Tris-HCl pH 7.4, 150 mM NaCl; global 1:1 fit.
Test [3] has as its target T2, VC1 domain of human RAGE (receptor for advanced glycation end products), biotinylated (human, UniProt Q15109 23-226, biotin (EZ-Link Sulfo-NHS-Biotin)).
T2 chain: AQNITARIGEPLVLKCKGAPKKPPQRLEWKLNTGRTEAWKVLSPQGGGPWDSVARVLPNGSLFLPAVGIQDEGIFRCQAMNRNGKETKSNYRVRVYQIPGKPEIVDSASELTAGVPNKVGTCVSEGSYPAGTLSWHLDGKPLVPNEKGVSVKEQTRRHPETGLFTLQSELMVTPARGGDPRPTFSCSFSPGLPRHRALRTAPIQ
In words: BLI; in the presence of twofold excess Nb1.

In test [4] the target is T2, VC1 domain of human RAGE (receptor for …). Kind of test: BLI; in the presence of twofold excess Nb18.
Test [5] concerns the target T1, VC1 domain of human RAGE (receptor for …). Kind of test: BLI; competition: biotinylated RAGE-VC1 on streptavidin biosensor; S100B tetramer 50-750 nM previously incubated with a twofold excess of Nb; 25 °C; PBS, 0.1% BSA, 0.05% Tween-20, 1.1 mM CaCl2; global 1:1 fit. Particulars: both partners purified.

anti-S100B nanobody Nb12 (llama), sequence (heavy, as listed by the source): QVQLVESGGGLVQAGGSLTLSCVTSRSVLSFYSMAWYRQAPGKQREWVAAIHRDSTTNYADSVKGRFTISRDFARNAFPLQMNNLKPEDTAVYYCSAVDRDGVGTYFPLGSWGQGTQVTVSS

B1: tetrameric S100B (human, recombinant) (natural protein)
chain: MSELEKAMVALIDVFHQYSGREGDKHKLKKSELKELINNELSHFLEEIKEQEVVDKVMETLDNDGDGECDFQEFMAFVAMVTTACHEFFEHE
notes: S100B, human, isolated as the tetramer (association of two homodimers); also called S100B-4mer; S100B tetramer; source: E. coli (BL21(DE3) E. Cloni EXPRESS), purified
On to B1, for which the Kd in test [1] is about 0.029 µM; in test [2], 0.8 µM; in test [3], 0.089 µM; in test [4] it was 0.07 µM. Further, in test [5], the “fold increase of KD after incubation with Nb1, against S100B-4mer alone” value came to 3 fold. The “fold increase of KD after incubation with Nb18, against S100B-4mer alone” value in test [5] stood at 2.4 fold.
